Source: US20230374157A1
pKd: −log10 of the molar value.

Legend:
[1] = target: His-tagged human HER3 extracellular domain (Acro ER3-H5223) (human) (UniProt P21860); experiment: BLI, SI-1R12 covalently coupled to AR2G sensors, monomeric HER3 ECD in solution, 1:1 fit
[2] = target: His-tagged human EGFR extracellular domain (expressed and purified in-house) (human) (UniProt P00533); experiment: BLI, antibody on AHC tips, monomeric EGFR ECD in solution, 1:1 fit
[3] = target: human His-tagged HER3 extracellular domain (in-house expressed) (human) (UniProt P21860); experiment: BLI sandwich assay, antibody held on immobilized biotinylated EGFR, 500 nM HER3 ECD in solution, 1:1 fit
[4] = target: His-tagged human HER3 extracellular domain (Acro ER3-H5223) (human) (UniProt P21860); experiment: BLI, antibody on AHC tips, monomeric HER3 ECD in solution, 1:1 fit
[5] = target: biotinylated human EGFR extracellular domain (Acro EGF-H82E3) (human) (UniProt P00533); experiment: BLI avidity format, biotinylated EGFR ECD on SA sensors, antibody in solution, 1:1 fit

Chain of SI-1X4.2, nimotuzumab-based EGFR x HER3 bispecific antibody with MM-111 anti-HER3 scFv (heavy): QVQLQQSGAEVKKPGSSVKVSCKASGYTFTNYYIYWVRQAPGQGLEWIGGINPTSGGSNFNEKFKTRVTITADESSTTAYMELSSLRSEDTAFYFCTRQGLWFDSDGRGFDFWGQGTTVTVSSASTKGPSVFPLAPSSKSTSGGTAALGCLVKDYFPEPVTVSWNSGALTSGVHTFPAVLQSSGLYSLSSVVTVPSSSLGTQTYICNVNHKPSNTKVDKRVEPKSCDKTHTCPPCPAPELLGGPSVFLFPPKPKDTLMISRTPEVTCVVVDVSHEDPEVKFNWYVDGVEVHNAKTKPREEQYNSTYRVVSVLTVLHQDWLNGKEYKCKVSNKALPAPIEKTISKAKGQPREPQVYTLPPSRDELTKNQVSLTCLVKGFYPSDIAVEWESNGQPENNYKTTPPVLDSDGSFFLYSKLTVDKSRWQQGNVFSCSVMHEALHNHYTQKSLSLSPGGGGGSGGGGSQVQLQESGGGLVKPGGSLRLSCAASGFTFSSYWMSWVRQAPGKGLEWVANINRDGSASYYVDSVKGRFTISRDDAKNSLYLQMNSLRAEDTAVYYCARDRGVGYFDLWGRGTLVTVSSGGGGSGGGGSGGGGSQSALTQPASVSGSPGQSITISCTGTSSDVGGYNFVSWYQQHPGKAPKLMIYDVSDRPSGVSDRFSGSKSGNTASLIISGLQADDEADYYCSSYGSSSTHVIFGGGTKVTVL
Chain of SI-1X4.2, nimotuzumab-based EGFR x HER3 bispecific antibody with MM-111 anti-HER3 scFv (light): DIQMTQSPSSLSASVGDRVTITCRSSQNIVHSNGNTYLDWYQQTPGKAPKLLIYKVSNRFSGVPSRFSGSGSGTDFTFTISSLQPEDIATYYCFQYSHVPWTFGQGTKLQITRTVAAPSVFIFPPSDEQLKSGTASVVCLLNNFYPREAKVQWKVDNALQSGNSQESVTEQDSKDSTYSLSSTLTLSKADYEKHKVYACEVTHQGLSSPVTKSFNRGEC

“SI-1R12 (MM-111), HER2 x HER3 bispecific human serum albumin fusion (bispecific antibody)” showed a pKd [1] of 7.02, a koff [1] of 0.0422 s⁻¹ and a kon [1] of 441000 M⁻¹ s⁻¹.

“SI-1X2, panitumumab-based EGFR x HER3 bispecific antibody with MM-111 anti-HER3 scFv” showed a pKd [2] of 8.56, a pKd [3] of 6.11 and a pKd [4] of 6.88.

“SI-1X4.2, nimotuzumab-based EGFR x HER3 bispecific antibody with MM-111 anti-HER3 scFv” was tested, and the pKd [2] was 7.73, the koff [2] was 0.00202 s⁻¹ and the kon [2] was 108000 M⁻¹ s⁻¹. The pKd [5] was 9.40, the koff [5] was 4.25e-05 s⁻¹ and the kon [5] was 107000 M⁻¹ s⁻¹. The pKd [3] was 6.78, the koff [3] was 0.0459 s⁻¹ and the kon [3] was 279000 M⁻¹ s⁻¹. It also gave a pKd [4] of 6.84, a koff [4] of 0.038 s⁻¹ and a kon [4] of 260000 M⁻¹ s⁻¹.

Work on “SI-1X6.4, bispecific tetravalent anti-EGFR x HER3 antibody (cetuximab variable regions with mouse framework, MM-111 anti-HER3 scFv) (bispecific antibody)” yielded a pKd [2] of 8.27, a pKd [3] of 6.21 and a pKd [4] of 6.97.
